These results are taken from publication PMC11697037, “Structural insights into the regulation of monomeric and dimeric apelin receptor” (Nature Communications, 2025).

Data set [1] concerns the molecule itself. The experiment in a line: cryo-EM structure; JN241-9-APJR complex, APJR and JN241-9 co-expressed in Hi5 cells (1:1 virus ratio), co-purified without added ligand; no Gi.
Data set [2] has as its target T1, human WT APJR (apelin receptor), cryo-EM construct with a deletion of 50 residues from the C-terminus (human, UniProt P35414).
T1 construct: The N-terminal fusion is HA signal peptide, Flag tag, 10x His tag and BRIL, in pFastBac1; No cleavage of the fusion is mentioned; The protein is seen both as a monomer and as a homodimer; also called ProtA; ProtB; source: Trichoplusia ni (Hi5) insect cells, baculovirus; alone or co-expressed with Gi and/or JN241-9; purified (LMNG/CHS, Talon resin, SEC); not shown: His10, N-terminal, kept
Nature of the data set: cryo-EM structure; purified APJR (LMNG/CHS) incubated 1 h at 4 °C with 125 µg JN241(-Fc), SEC in 20 mM HEPES pH 7.5, 100 mM NaCl; no Gi. The settings on record: both partners purified.

The target of data set [3] is T1, human WT APJR (apelin receptor), …. The experiment in a line: cryo-EM 2D classification; JN241-APJR complex with the Fc tag removed from the sdAb; data quality insufficient for a high-resolution structure. The settings on record: both partners purified.

B1: human WT APJR (apelin receptor), cryo-EM construct with a deletion of 50 residues from the C-terminus (receptor, UniProt P35414 1-330, looked up)
chain: MEEGGDFDNYYGADNQSECEYTDWKSSGALIPAIYMLVFLLGTTGNGLVLWTVFRSSREKRRSADIFIASLAVADLTFVVTLPLWATYTYRDYDWPFGTFFCKLSSYLIFVNMYASVFCLTGLSFDRYLAIVRPVANARLRLRVSGAVATAVLWVLAALLAMPVMVLRTTGDLENTTKVQCYMDYSMVATVSSEWAWEVGLGVSSTTVGFVVPFTIMLTCYFFIAQTIAGHFRKERIEGLRKRRRLLSIIVVLVVTFALCWMPYHLVKTLYMLGSLLHWPCDFDLFLMNIFPYCTCISYVNSCLNPFLYAFFDPRFRQACTSMLCCGQSR
notes: The N-terminal fusion is HA signal peptide, Flag tag, 10x His tag and BRIL, in pFastBac1; No cleavage of the fusion is mentioned; The protein is seen both as a monomer and as a homodimer; also called ProtA; ProtB; source: Trichoplusia ni (Hi5) insect cells, baculovirus; alone or co-expressed with Gi and/or JN241-9; purified (LMNG/CHS, Talon resin, SEC); not shown: His10, N-terminal, kept
Take B1: the binding result in data set [1] was “binds”.

B2: JN241-Fc, antagonistic single-domain antibody (sdAb) JN241 with Fc tag (VHH)
VHH: QVQLVESGGGSVQSGGSLTLSCAASGSTYSSHCMGWFRQAPGKEREGVALMTRSRGTSYADSVKGRFTISQDNTKNILYLQMNSLKPEDTAMYYCAAVPRAGIESGAYCKWNMKDSGSWGQGTQVTVSS
notes: the model of the JN241-APJR complex deposited here (PDB 8XQJ) holds this chain; also called antagonistic antibody; sdAb antagonist; source: provided by Structure Therapeutics
As for B2, in data set [2], the binding result was “binds”.

B3: JN241 with the Fc tag removed (VHH)
VHH: QVQLVESGGGSVQSGGSLTLSCAASGSTYSSHCMGWFRQAPGKEREGVALMTRSRGTSYADSVKGRFTISQDNTKNILYLQMNSLKPEDTAMYYCAAVPRAGIESGAYCKWNMKDSGSWGQGTQVTVSS
notes: as the VHH of m4; PDB 8XQJ holds the JN241 chain; also called sdAb; source: Fc tag removed
B3: the binding result in data set [3] was “binds”.
